Assay [1] deals with T1, mouse KLK7 (mouse, UniProt Q91VE3 26-249, limits assumed).
T1 construct: also called mKLK7
Nature of the assay: SPR (Biacore), antibody captured on Protein A chip, KLK as analyte, single-cycle kinetics, 25 C. Background: In SPR one partner is held on a chip, and binding of the other changes the refractive index at the surface.
Experimental: (§1) All screening assays were performed at 25° C. The running buffer used was 20 mM HEPES, 300 mM NaCl, 0.01% Tween-20, pH 7.5. Antibodies (1 μg/mL) were captured on Fc2-4 of a Series S ProteinA Sensor Chip (Cytiva) flowing at 10 μL/min for 30 s. Kinetics measurements were made in single-cycle kinetics mode with a series of 4-5 concentrations with top concentration of 25-100 nM and serial dilution 4-fold. Contact time was typically 300 s and dissociation time ranged from 1800-3600 s. Flow rate of 30 μL/min was typically used. The sensor chip was regenerated with 10 mM glycine, pH 1.5 with a contact time of 30 s flowing at 50 μL/min.

Assay [2] concerns the target T2, human KLK7, active form (human, UniProt P49862 30-253).
T2 construct: mature; also called hKLK7; huKLK7
The description is as above.
Experimental: as §1

Assay [3] concerns the target T3, mouse KLK5 (mouse).
T3 construct: also called mKLK5
The assay is described as above.
Experimental: as §1

Assay [4] deals with T4, human KLK5, active form (human, UniProt Q9Y337 67-293).
T4 construct: mature; also called hKLK5; huKLK5
The description is as above.
Experimental: as §1

Assay [5] addresses T1, mouse KLK7. As to the kind of experiment: cell-based or functional assay.
The target of assay [6] is T2, human KLK7, active form. Nature of the assay: cell-based or functional assay.
The target in assay [7] is T3, mouse KLK5. As to the kind of experiment: cell-based or functional assay.
Assay [8] addresses T4, human KLK5, active form. As to the kind of experiment: cell-based or functional assay.
A further assay has as its target T5, pro-form of human KLK7 (human, UniProt P49862 23-253).
T5 construct: Pro-form (zymogen); also called proform of huKLK7; proKLK7
As to the kind of experiment: SPR (Biacore), antibody captured on Protein A chip, proform huKLK7 injected at 0.156-40 nM.

The target in assay [9] is T4, human KLK5, active form. Nature of the assay: SPR (Biacore), antibody captured on Protein A chip, active huKLK5 injected at 0.156-40 nM.
Experimental: (§2) The sensor chip was regenerated with 10 mM glycine, pH 1.5 with a contact time of 30 seconds flowing at 50 μL/min.
The target of the next assay is T6, pro-form of human KLK5 (human, UniProt Q9Y337 23-293).
T6 construct: Pro-form (zymogen); also called proform of huKLK5; proKLK5
Nature of the assay: SPR (Biacore), antibody captured on Protein A chip, proform huKLK5 injected at 0.156-40 nM.

Assay [10] has as its target T2, human KLK7, active form. As to the kind of experiment: SPR (Biacore), antibody captured on Protein A chip, active huKLK7 injected at 0.156-40 nM.
Experimental: as §2

Numbering of substitutions follows the chain as printed. Bounds are passed on as bounds.

T2 sequence (P49862 30-253): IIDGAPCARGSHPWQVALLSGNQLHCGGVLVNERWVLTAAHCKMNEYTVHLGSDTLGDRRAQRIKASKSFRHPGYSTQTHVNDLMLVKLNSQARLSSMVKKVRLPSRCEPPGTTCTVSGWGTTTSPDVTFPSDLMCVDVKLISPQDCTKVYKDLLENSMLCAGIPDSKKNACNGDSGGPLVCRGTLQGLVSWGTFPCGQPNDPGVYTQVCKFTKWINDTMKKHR
T1 sequence (Q91VE3 26-249 limits assumed): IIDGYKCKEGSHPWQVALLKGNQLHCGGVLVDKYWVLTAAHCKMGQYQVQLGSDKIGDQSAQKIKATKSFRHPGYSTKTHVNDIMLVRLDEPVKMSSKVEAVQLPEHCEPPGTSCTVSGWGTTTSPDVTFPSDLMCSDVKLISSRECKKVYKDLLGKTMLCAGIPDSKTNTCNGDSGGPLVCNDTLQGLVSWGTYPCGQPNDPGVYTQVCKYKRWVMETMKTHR
T5 sequence (P49862 23-253): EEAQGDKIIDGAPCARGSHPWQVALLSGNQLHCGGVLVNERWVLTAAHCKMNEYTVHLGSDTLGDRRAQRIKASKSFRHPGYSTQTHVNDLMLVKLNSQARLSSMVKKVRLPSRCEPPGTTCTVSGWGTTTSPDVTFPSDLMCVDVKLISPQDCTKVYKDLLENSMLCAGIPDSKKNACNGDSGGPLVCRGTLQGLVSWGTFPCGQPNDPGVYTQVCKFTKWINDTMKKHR
Experimental for pro-form of human KLK5: as §2
Experimental for pro-form of human KLK7: as §2

B1: KLK5/KLK7-Dual-Ab2 (antibody, V domains shown)
VH: QLQLQESGPGLVKPSETLSLTCTVSGGSISSDDYYWVWIRQPPGKGLEWIGSIDYFASTYYNPSLKSRVTISVDTSKNQFSLKLSSVTAADTAVYYCARGRPLGYGARHDYYGMDVWGQGTTVTVSS
VL: DIQMTQSPSSLSASVGDRVTITCRASQSISSYLNWYQQKPGKAPKLLIYSASSLQSGVPSRFSGSGSGTDFTLTISSLQPEDFATYYCQQSPYFPPLTFGGGTKVEIK
notes: Captured on a Protein A chip as an antibody; also called KLK5/7-Dual-Ab2
B1: the Kd (in general, the concentration at which binding is half-saturated) with mouse KLK7 [1] is 1.55 nM; in the assay with human KLK7, active form [2], 0.0218 nM; in the assay with mouse KLK5 [3] it was 2.79 nM; with human KLK5, active form [4], 0.01 nM. Moreover, the “IC50(nM), inhibition of protease activity (cleavage of KHLF-AMC)” value with mouse KLK7 [5] worked out at 5.13 nM; with human KLK7, active form [6], 0.25 nM. For the same molecule, the “IC50(nM), inhibition of protease activity (cleavage of BOC-Val-Pro-Arg-AMC)” value in the assay with mouse KLK5 [7] stood at 17.2 nM; in the assay with human KLK5, active form [8], 0.25 nM.

B2: KLK5/KLK7-Dual-Ab3 (antibody, V domains shown)
VH: B1 VH with F56Y, N62S, R108K, D110Y
VL: B1 VL
notes: Captured on a Protein A chip as an antibody; also called KLK5/7-Dual-Ab3
Turning to B2, the Kd was 1.11 nM with mouse KLK7 [1]; 0.0136 nM with human KLK7, active form [2]; 4.02 nM with mouse KLK5 [3]; 0.141 nM in the assay with human KLK5, active form [4]. For the same molecule, the “IC50(nM), inhibition of protease activity (cleavage of KHLF-AMC)” value was 5.28 nM with mouse KLK7 [5] and 0.21 nM with human KLK7, active form [6]. Further, the “IC50(nM), inhibition of protease activity (cleavage of BOC-Val-Pro-Arg-AMC)” value with mouse KLK5 [7] worked out at 24.1 nM; with human KLK5, active form [8], 0.25 nM.

B3: KLK5/KLK7-Dual-Ab4 (antibody, V domains shown)
VH: B1 VH with D32L, F56S, A57G, S58D, D110Y, G113A
VL: B1 VL
notes: Captured on a Protein A chip or coupled to a CM5 chip as an antibody; also called KLK5/7-Dual-Ab4
On to B3, for which the Kd in the assay with mouse KLK7 [1] was 0.129 nM; in the assay with human KLK7, active form [2], 0.002 nM; with mouse KLK5 [3], 3.15 nM; with human KLK5, active form [4], 0.0243 nM; in the assay with human KLK5, active form [9], below 0.05 nM; in the assay with human KLK7, active form [10], below 0.05 nM. The binding result with pro-form of human KLK7 and with pro-form of human KLK5 was “no binding (tested: 40 nM)” in each case. The “IC50(nM), inhibition of protease activity (cleavage of KHLF-AMC)” value was found to be 1.77 nM with mouse KLK7 [5] and 0.16 nM in the assay with human KLK7, active form [6]. Besides, the “IC50(nM), inhibition of protease activity (cleavage of BOC-Val-Pro-Arg-AMC)” value with mouse KLK5 [7] is 16.1 nM; in the assay with human KLK5, active form [8], 0.27 nM.

B4: KLK5/KLK7-Dual-Ab1 (antibody, V domains shown)
VH: B1 VH with D32S, V37G, D54Y, F56S, A57G, D110Y
VL: B1 VL with Y93P
notes: Captured on a Protein A chip as an antibody; also called KLK5/7-Dual-Ab1
In the case of B4, the dissociation constant Kd stood at 1 nM with mouse KLK7 [1]; 1.82 nM in the assay with human KLK7, active form [2]; 1000 nM with human KLK5, active form [4].

The values above are taken from patent publication US20260258156A1 (TRIVENI BIO, published 2026).
